# Data published in paper PMC7954794, “Protein context shapes the specificity of SH3 domain-mediated interactions in vivo” (Nature Communications, 2021).
# B1: YGL099W_1 (protein, UniProt P53145 1-640, looked up)
# Large subunit GTPase 1: MPPKEAPKKWKAPKGPKPTHRKNKNKLELGRAIKYARQKENAIEYLPDGEMRFTTDKHEANWVKLRSVTQESALDEFLSTAALADKDFTADRHSNVKIIRMDSGNDSATSQGFSMTNEQRGNLNAKQRALAKDLIVPRRPEWNEGMSKFQLDRQEKEAFLEWRRKLAHLQESNEDLLLTPFERNIEVWKQLWRVVERSDLVVQIVDARNPLLFRSVDLERYVKESDDRKANLLLVNKADLLTKKQRIAWAKYFISKNISFTFYSALRANQLLEKQKEMGEDYREQDFEEADKEGFDADEKVMEKVKILSIDQLEELFLSKAPNEPLLPPLPGQPPLINIGLVGYPNVGKSSTINSLVGAKKVSVSSTPGKTKHFQTIKLSDSVMLCDCPGLVFPNFAYNKGELVCNGVLPIDQLRDYIGPAGLVAERIPKYYIEAIYGIHIQTKSRDEGGNGDIPTAQELLVAYARARGYMTQGYGSADEPRASRYILKDYVNGKLLYVNPPPHLEDDTPYTREECEEFNKDLYVFDRLPDTRKEQVQNAAKAKGIDIVDLARDLNQLTFSAHTGGDTQKEAKSVTHGGKQAALYNAAEDLDRDFFKMNNVEGRLSTPFHKVQNSSAGKRHNKKNKSKNAKSKVFSIENN
# B2: YGR229C_2 (protein, UniProt P32566 1-505, looked up)
# Cell wall assembly regulator …: MDLFKRKVKEWVYSLSTDDHYAEYNPDETPTFNMGKRLNSNNGQVNPSQMHLNSVDEEMSMGFQNGVPSNEDINIDEFTSTESNDGVSETLLAWRHIDFWTSEHNPDLNATLSDPCTQNDITHAEEDLEVSFPNPVKASFKIHDGQEDLESMTGTSGLFYGFQLMTLDQVVAMTQAWRNVAKNLNKRSQQGLSHVTSTGSSSSMERLNGNKFKLPNIPDQKSIPPNAVQPVYAHPAWIPLITDNAGNHIGVDLAPGPNGKYAQIITFGRDFDTKFVIAENWGEFLLSFANDLEAGNWYLVDDNDDYFSGDGELVFRDKKSNGPIQDYFEVLKRRTWIKYQENLRSQQQKSQPDTSLQEQKYVPASQKKVAAEQPSTLNAESIKGEDSGSADVQSVQDHESVKIVKTEPSEAETTTVNTESLGQAEHEIKADNVDIKQESERKEDEKQPKVEEKEHVENEHVTESAKKDDDVNKQTEEMNKKEENEIRSDDAKVEEAREEFENIAL
# B3: YKL117W_2 (protein, UniProt P28707 2-216, looked up)
# Co-chaperone protein SBA1: SDKVINPQVAWAQRSSTTDPERNYVLITVSIADCDAPELTIKPSYIELKAQSKPHVGDENVHHYQLHIDLYKEIIPEKTMHKVANGQHYFLKLYKKDLESEYWPRLTKEKVKYPYIKTDFDKWVDEDEQDEVEAEGNDAAQGMDFSQMMGGAGGAGGAGGMDFSQMMGGAGGAGSPDMAQLQQLLAQSGGNLDMGDFKENDEEDEEEEIEPEVKA
# B4: YGR037C_2 (protein, UniProt P31787 1-87, looked up)
# Acyl-CoA-binding protein: MVSQLFEEKAKAVNELPTKPSTDELLELYALYKQATVGDNDKEKPGIFNMKDRYKWEAWENLKGKSQEDAEKEYIALVDQLIAKYSS
# B5: YFR004W_2 (protein, UniProt P43588 1-306, looked up)
# Ubiquitin carboxyl-terminal …: MERLQRLMMNSKVGSADTGRDDTKETVYISSIALLKMLKHGRAGVPMEVMGLMLGEFVDDYTVNVVDVFAMPQSGTGVSVEAVDDVFQAKMMDMLKQTGRDQMVVGWYHSHPGFGCWLSSVDVNTQKSFEQLNSRAVAVVVDPIQSVKGKVVIDAFRLIDTGALINNLEPRQTTSNTGLLNKANIQALIHGLNRHYYSLNIDYHKTAKETKMLMNLHKEQWQSGLKMYDYEEKEESNLAATKSMVKIAEQYSKRIEEEKELTEEELKTRYVGRQDPKKHLSETADETLENNIVSVLTAGVNSVAIK
# B6: YLR191W_2 (protein, UniProt P80667 1-386, looked up)
# Peroxisomal membrane protein …: MSSTAVPRPKPWETSASLEEPQRNAQSLSAMMTSNQQDSRPTEESNNSNSASESAPEVLPRPAALNSSGTYGESNTIPGIYGNSNYGIPYDNNPYSMNSIYGNSIGRYGYGGSYYGNNYGSFYGGGYGAGAGYGMNNGSGLGESTKATFQLIESLIGAVTGFAQMLESTYMATHNSFFTMISVAEQFGNLKEMLGSFFGIFAIMKFLKKILYRATKGRLGIPPKNFAESEGSKNKLIEDFQKFNDSGTINSNEKATRRKISWKPLLFFLMAVFGFPYLLNKFITKLQTSGTIRASQGNGSEPIDPSKLEFARALYDFVPENPEMEVALKKGDLMAILSKKDPLGRDSDWWKVRTKNGNIGYIPYNYIEIIKRRKKIEHVDDETRTH
# B7: YNL094W_1 (protein, UniProt P53933 1-587, looked up)
# Phosphatidate phosphatase APP1: MNSQGYDESSSSTAATSGPTSGDPRMGKKQRFMNLIRTTKDVYIPNLTSSISQKTMDGIRSTTNSFEGYNDLPMELPHNTTITYFPTYTTTNLVDPDGLSAPRKDFETTVRCAVSYPGNPTSRRNRWLLSLCKQYLRTGTAEADVAPVVPPHLEEDSGDLNDSQSSIESSLSSKSENRYSHMGIQEEDVLNERIQGFLSKKVPNTPVVVDLLPKDKLRGDTASFFGTTDSYGNLLIKAETDFLPSKINITLDTPIEGHADPISETFPANYVSPYGIGLISDIDDTIKHTGVTGDRRSMFRNVFIHDVQSWVIDGVPLWYKTLHDVADVDFFYVSNSPIQTFTLLKQYICANFPPGPIFLKQYSGNFFSTIMTSSANRKIQPIANILKDFPKKKFILVGDSGEHDLEAYTTTALQFPNQILAIYIRCCSNSMSDVPSHDEEVMNEVNNIIELQQRPMQMTKSTVRTRRRPPPPPIPSTQKPSLTEEQTESIRMSRRNKDENNAKRVAPPPLPNRQLPNLDANTYYVPSSQNDYGMYGAFMDKKADEWKRRVMDSIQKLSNQDTTLMFFSDPALSLEDSIRRIREKYSN
# B8: YCL024W_2 (protein, UniProt P25389 1-1037, looked up)
# Probable …: MTVANTETHSAAKPSSTIGPWKLGETLGFGSTGKVQLAQHERTGHRTAVKVISKSIFNNNGNHSNDDSVLPYNIEREIVIMKLLSHPNVLSLYDVWETNNNLYLILEYAEKGELFNLLVDHGPLPEREAINCFRQIIIGISYCHALGIVHRDLKPENLLLDSFYNIKIADFGMAALQTDADLLETSCGSPHYAAPEIVSGLPYEGFASDVWSCGVILFALLTGRLPFDEENGNVRDLLLKVQKGQFEMPNDTEISRDAQDLIGKILVVDPRQRIKIRDILSHPLLKKYQTIKDSKSIKDLPRENTYLYPLADSNNHTSASIDDSILQNLVVLWHGRHADDIVSKLKENGTNKEKILYALLYRFKLDSVRGSNKKNRNKIKKTKKNKRSSTLSSSSSLLLNNRSIQSTPRRRTSKRHSREFSSSRKRSSFLLSSNPTDSSPIPLRSSKRITHINVASANTQATPSGVPNPHKRNSKKRSSKRLSYMPNTKRSSLTSKSLSNFTNLIDDDDWEYIEKDAKRTSSNFATLIDEIFEPEKFELAKREKAELQRKVQEAKRQSVNAQKINEDEFGSEVSDGMKELKKINDKVSSPLINYEFSQQELLQDIDTLLTNRYQLSSYTRPISRLDPGLTPVTETLPNNLKEKTALLQDTEKKIIETIRRSKFLGSLLNVRGGLSPGKSELAPIEESPIVSTTPLIYNDRMEPRRISDVEVPHFTRKSKHFTTANNRRSVLSLYAKDSIKDLNEFLIKEDPDLPPQGSTDNESRSEDPEIAESITDSRNIQYDEDDSKDGDNVNNDNILSDFPQGVGISQEYDMKDKNPNQSPISKSAEPTLVVKLPSLSSFQGKNASGLGLYQREPSKVTLPSLTSNNSSVGENIEDGAEKGTESEKIAASLSDDDLKEDNDKKDNDTVNAPTTVKKPPNSVLLKKFSKGKILELEIHAKIPEKRLYEGLHKLLEGWKQYGLKNLVFNITNMIITGKLVNDSILFLRSTLFEIMVLPNGDGRSLIKFNKKTGSTKTLTKLATEIQIILQKEGVLDK
# B9: YOR284W_1 (protein, UniProt Q12134 1-243, looked up)
# Protein HUA2: MQQTKFGKMYLDHDSVVEYSEDEIVEADRITLGYKKRLSMIENQMRHLLEDFSLDVQQIEPILADLQKYYDAFLQLLQKRNKSLQCKRSTHQPVPSPMNSQTSTNAKVNLSGKLMKFQLNSVQKFDEENILRILQNKIEFEHYFQIDKGKKQKVLLLAVYQCLNGPTRLHKVLNIEGIIHNNSIRTILGKQVSSSKWTVFLYDVKLVLLAHRQDVPNLETSKMIVRYGDLFPCALYFKDHTAY
# System: PPIs identified as affected by the SH3 domain deletions
# Assay: Liquid DHFR-PCA low-throughput validation of PPIs affected by SH3 deletion (Fig. S1D-E)
# Type: cell-based, Saccharomyces cerevisiae
# Conditions: label = prey, liquid DHFR-PCA, prey _1 = lost, _2 = gained in screen
# Procedure: Liquid DHFR-PCA low-throughput experiments were performed to validate the PPIs identified as affected by the SH3 domain deletions in the high-throughput solid DHFR-PCA screen (256 PPIs weaker or lost and 116 PPIs stronger or gained following domain deletions). Mating and the diploid selection were performed as described for the large-scale experiment, with the exception that the plates were in 384 formats. Following the second diploid selection, diploid cells were inoculated in a 96 v-shaped well plate using a robotically manipulated 96 pin tool in a synthetic complete medium with MSG at pH 6.0 with NAT and HPH. After 48 h of growth, optical density (OD) was read using a TECAN Infinite F200 Pro, and dilutions to 1 OD in sterile nanopure water were prepared. Cells were then diluted to 0.1 OD by combining 25 µl of cell suspension at OD = 1 and 225 µl of PCA selection media without agar in a 96-wells plate. Plates were incubated at 30 °C in a TECAN Infinite M Nano and OD was monitored each 15 min for 72 h.
molecule,measurement,setting,value
B1,Ratio (Deletedscore / WTscore),bait ABP1,1.003
B2,Ratio (Deletedscore / WTscore),bait BZZ1-1,1.034
same,Ratio (Deletedscore / WTscore),bait BZZ1-2,1.734
same,Ratio (Deletedscore / WTscore),bait LSB1,1.08
same,Ratio (Deletedscore / WTscore),bait PIN3,1.619
B3,Ratio (Deletedscore / WTscore),bait ABP1,1.066
same,Ratio (Deletedscore / WTscore),bait BZZ1-2,1.596
same,Ratio (Deletedscore / WTscore),bait LSB3,1.715
same,Ratio (Deletedscore / WTscore),bait RVS167,1.422
B4,Ratio (Deletedscore / WTscore),bait LSB3,1.675
same,Ratio (Deletedscore / WTscore),bait MYO3,1.004
same,Ratio (Deletedscore / WTscore),bait MYO5,0.9102
B5,Ratio (Deletedscore / WTscore),bait ABP1,1.111
same,Ratio (Deletedscore / WTscore),bait LSB3,1.521
same,Ratio (Deletedscore / WTscore),bait MYO3,1.308
same,Ratio (Deletedscore / WTscore),bait MYO5,1.194
same,Ratio (Deletedscore / WTscore),bait RVS167,1.454
B6,Ratio (Deletedscore / WTscore),bait BEM1-1,1.873
same,Ratio (Deletedscore / WTscore),bait,1.174
B7,Ratio (Deletedscore / WTscore),bait ABP1,0.4956
B8,Ratio (Deletedscore / WTscore),bait NBP2,1.51
B9,Ratio (Deletedscore / WTscore),bait ABP1,0.3885
